Assay results: patent US11535851B2, “Reagents for treatment of hepatitis B virus (HBV) infection and use thereof” (priority 2016, dated 2022)

B1: shmiR-15: shmiR targeting HBV; RNA SEQ ID NO: 57, encoded by DNA SEQ ID NO: 73 (nucleic acid)
chain: GGUAUAUUGCUGUUGACAGUGAGCGAAGUGGUUCGUAGGGCUUUCCACUGUGAAGCAGAUGGGUGGAAAGCCCUACGAACCACUGCGCCUACUGCCUCGGACUUCAA
modifications: expressed or natural sequence
B2: shmiR-6: shmiR targeting HBV; RNA SEQ ID NO: 48, encoded by DNA SEQ ID NO: 64 (nucleic acid)
chain: GGUAUAUUGCUGUUGACAGUGAGCGACAGGUCCCCUAGAAGAAGAAACUGUGAAGCAGAUGGGUUUCUUCUUCUAGGGGACCUGCCGCCUACUGCCUCGGACUUCAA
modifications: expressed or natural sequence
B3: shmiR-12: shmiR targeting HBV; RNA SEQ ID NO: 54, encoded by DNA SEQ ID NO: 70 (nucleic acid)
chain: GGUAUAUUGCUGUUGACAGUGAGCGAGUCCCGUCGGCGCUGAAUCCACUGUGAAGCAGAUGGGUGGAUUCAGCGCCGACGGGACGCGCCUACUGCCUCGGACUUCAA
modifications: expressed or natural sequence

Experiments:
[1] = system: Luciferase reporter constructs carrying effector or effector complement sequences (HBV transcripts); experiment: Dual-luciferase reporter assay (strand preference activity) in HEK293 cells; type: cell-based; conditions: FIG. 1A; for activity of constructs in luciferase reporter assay: compared directly to corresponding shRNA constructs; for antisense (effector) strand activity (strand preference activity): relative to shRNA expressing counterparts
Method: Efficacy of the ddRNAi constructs expressing shmiRs or shRNAs of the disclosure to knockdown HBV transcripts is determined using dual-luciferase reporter assays in HEK293 cells.
Plasmid reporter constructs based on the pGL3 Luciferase Reporter Vector are constructed for effector and effector complement sequences from each of the shmiRs and shRNAs of the disclosure. Luciferase reporter constructs e.g., firefly luciferase reporter constructs, are generated by inserting the respective effector sequence or effector complement sequence of the shmiRs or shRNAs (as appropriate) with 20 bp flanking sequences at each end into the pGL3-control vector (Promega, Madison, Wis.). The inserts are subcloned using FseI and XbaI restriction enzyme sites following the luciferase reporter gene.
The dual-luciferase reporter assays are performed in HEK293 cells (ATCC). The HEK293 cells are cultured in DMEM medium containing 10% fetal bovine serum, 2 mM glutamine, penicillin (100 U/mL), and streptomycin (100 μg/mL) at 37° C. humid incubator with 5% CO2. The HEK293 cell are seeded at a density of 2×10^4 cells per well into 96-well culture plate one day prior to transfection.
ddRNAi expression constructs described in Example 1 (i.e., ddRNAi constructs designated HBV-shmiR1 to HBV-shmiR16, HBV-shmiRx3-v1 and HBV-shmiRx3-v2) are synthesized and inserted into an appropriate plasmid vector e.g., a pSsh vector, optionally with a proximal sequence element 7 (PSE7) for constructs expressing shRNAs.
Expression vectors comprising the ddRNAi expression constructs are co-transfected into HEK293 cells with a Luciferase reporter construct e.g., a firefly luciferase reporter construct, expressing an effector sequence or effector complement sequence of the corresponding shmiR or shRNA (as appropriate) at a ratio of 10:1 (ddRNAi expression construct: Luciferase reporter construct) using 0.3 uL of Lipofectamine 2000 reagent (Life Technologies, Carlsbad, Calif.) according to manufacturer's instructions. Cells are also transfected with 1 ng of a Renilla reporter construct (serving as a transfection control). 48 hour post-transfection, cell lysates are collected and analyzed using Dual Luciferase Reporter Assay System (Promega, Madison, Wis.). The firefly/Renilla activity ratios are determined for each transfection. Percentage inhibition of reporter expression is calculated relative to a negative control e.g., a construct expressing a random non-targeting sequence. The experiment is performed in replicate.
In addition, the three ddRNAi shmiR constructs (i.e., the ddRNAi shmiR constructs expressing shmiR6, shmiR15 and shmiR12 respectively) were compared for strand preference activity relative to their shRNA expressing counterparts.
The influence of addition of an ‘A’ nucleotide at the 3′ end or a ‘G’ nucleotide at the 5′ end of the sense sequence on thermodynamics of the shmiR variant was also assessed. The idea is to allow for the antisense (or effector) strand to be preferentially loaded into the RISC complex for functional RNAi activity.

HepG2.2.15 cells = experiment: RNAi effector molecules (copies per cell) in HepG2.2.15 cells transduced with AdV vectors; type: cell-based, human; conditions: HepG2.2.15, AdV vectors MOI 100, days 3-6; versus corresponding shRNA; FIG. 3
Method: Single and triple shmiR or shRNA AdV vectors were prepared by subcloning the ddRNAi expression constructs described in Example 1 (i.e., ddRNAi constructs designated HBV-shmiR1 to HBV-shmiR16, HBV-shRNA1-HBV-shRNA16, HBV-shmiRx3-v1, HBV-shmiRx3-v2 and HBV-shRNAx3-v1) into a adenovirus (AdV) construct for virus production (Vector Biolabs, Malvern Pa.).
HepG2.2.15 cells were infected with the HBV shmiR AdV vectors or HBV shRNA AdV vectors in cell suspension and cultured on multi-well plates. Each well contained a suspension of approximately 1.25×10^5 HepG2.2.15 cells and one of the single or triple HBV shmiR AdV vectors, or one of the single or triple HBV shRNA AdV vectors, at MOI-100. Following transduction, cells were cultured at 37° C. at 5% CO2 for 3-7 days and harvested for total RNA isolation using Qiagen miRNeasy mini kit (Valencia, Calif.) at 3, 4, 5, and 6 days post-transfection.
Total RNAs were quantified using the NanoDrop 1000 Spectrophotometer (Thermo Scientific) and then diluted to a working concentration of 10 ng/μl.
RNAi effector molecules expressed as copies per cell were determined for shmiR-12 and shmiR-15 (FIGS. 3A and 3B, respectively) when expressed in HepG2.2.15 cells from single or triple HBV shmiR AdV vector(s) using Qiagen's miScript PCR system (designed to quantitate RNA effector molecules processed from shmiR or shRNA). […]

[2] = system: HBV transcripts at regions corresponding to HBsAg, HBcAg and HbxAg; experiment: Inhibition of HBV transcripts in HepG2.2.15 cells transduced with AdV vectors (RT-qPCR, relative to GAPDH mRNA); type: cell-based, HBV (serotype ayw, genotype D); conditions: HepG2.2.15, MOI of 100, 3, 4, 5 and 6 days after infection; versus corresponding shRNA constructs; FIG. 4
Method: Levels of inhibition of HBV transcripts at regions corresponding to HBV antigens HBsAg, HBcAg and HbxAg, relative to levels of GAPDH mRNA, are determined by normalizing the respective HBV mRNA transcript levels to GAPDH mRNA for each sample. Briefly, 100 ng of total RNA is used to synthesize cDNA using High Capacity cDNA Reverse Transcription Kit (Life Technologies, Carlsbad, Calif.) according to manufacturer instructions. Quantitative PCR amplifications of regions within HBV antigens HBsAg, HBcAg, HbxAg, and GAPDH is then performed using Power SYBR Green PCR Master Mix (Life Technologies) and the primer sets listed in Table 1. Standard real-time PCR conditions are used: initial denaturation at 95° C. for 10 min followed by 40 cycles of 95° C. for 15 sec and 60° C. for 1 min. […]
Levels of inhibition of HBV transcripts at regions corresponding to HBV antigens HBsAg, HBcAg and HbxAg, relative to levels of GAPDH mRNA, were determined according to the method described in Example 5.
Levels of inhibition of HBV transcripts at regions corresponding to HBV antigens HBsAg, HBcAg and HbxAg, relative to levels of GAPDH mRNA, for each shmiR of the disclosure (expressed individually, or as part of a triple construct), was determined at an MOI of 100 at 3, 4, 5 and 6 days after infection with HBV shmir or shRNA AdV vectors.

Molecule	activity of constructs in luciferase reporter assay [1]	antisense (effector) strand activity (strand preference activity) [1]	levels of effector RNAi molecule (copies per cell) (HepG2.2.15 cells)	silencing of HBV RNAs (HBsAg, HBcAg, HbxAg regions) [2]
B1	more effective than the corresponding shRNA constructs	higher antisense (effector) strand activity relative to the corresponding shRNAs	higher than the corresponding shRNAs	greater silencing of HBV RNAs compared to the corresponding shRNA expressing constructs
B2	more effective than the corresponding shRNA constructs	higher antisense (effector) strand activity relative to the corresponding shRNAs		
B3	more effective than the corresponding shRNA constructs	higher antisense (effector) strand activity relative to the corresponding shRNAs	higher than the corresponding shRNAs	greater silencing of HBV RNAs compared to the corresponding shRNA expressing constructs
